Here are results for one substance from patent US20260053963A1.

This test has as its target CD33 (human) (UniProt P20138). Briefly: cell-based or functional assay.
UniProt P20138, sequence (P20138 18-364): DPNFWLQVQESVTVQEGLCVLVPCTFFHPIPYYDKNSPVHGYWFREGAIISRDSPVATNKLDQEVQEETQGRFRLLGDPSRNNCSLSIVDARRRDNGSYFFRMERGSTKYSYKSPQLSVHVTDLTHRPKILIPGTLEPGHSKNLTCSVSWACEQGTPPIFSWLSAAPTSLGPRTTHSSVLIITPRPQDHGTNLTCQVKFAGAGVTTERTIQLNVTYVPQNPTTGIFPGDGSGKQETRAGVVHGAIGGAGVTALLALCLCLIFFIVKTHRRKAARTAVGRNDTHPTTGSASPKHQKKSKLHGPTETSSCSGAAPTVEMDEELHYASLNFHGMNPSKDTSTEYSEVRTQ

On to “^225Ac-labeled lintuzumab (^225Ac-labeled conjugate of p-SCN-Bn-DOTA and lintuzumab) (antibody; the values are: LD50)”, for which the cytotoxicity on HL60 (leukemia cells): dose at which 50% of the cells were killed (LD50) came out at 8 pCi/mL.
